# What was measured:
# [1] = system: HRMEC; assay: HRMEC wound healing and cell viability assays; assay type: cell-based; conditions: in vitro, FIG. 7C-7D
# [2] = system: 661W cells; assay: 661W photoreceptor cells with paraquat-induced oxidative stress; assay type: cell-based; conditions: PQ-treated 661W, co-treatment with 500 ng/ml PF-05231023, perifosine 5 or 10 μM
# Procedure: Photoreceptors (661W) cell culture: Photoreceptor 661W cells were cultured at 37° Celsius, 5% CO2 in a humidified atmosphere in Dulbecco's modified Eagle's medium (DMEM, #1196502, Gibco) supplemented with 10% fetal bovine serum (#S12450, Atlanta Biologicals) and 1% antibiotic/antimycotic solution. An equal number of cells per well was plated on a 6-well dish. Oxidative stress was induced with 0.5 mM paraquat (PQ, Sigma, #856177) for 1 hour at 37° Celsius. The culture media were changed and the cells were treated with vehicle (PBS) or 500 ng/ml PF-05231023 for 24 hours. Cells were collected for protein and RNA.
# Real-time PCR: Retinas or 661W cells were lysed with QIAzol lysis reagent and incubated on ice for 15 minutes. 20% chloroform was added and incubated for 5 minutes at room temperature. […] Quantitative analysis of gene expression was generated using an Applied Biosystems 7300 Sequence Detection System with the SYBR Green Master mix kit and gene expression was calculated relative to Cyclophilin A ((5′-CAG ACG CCA CTG TCG CTT T-3′ (SEQ ID NO: 30); 5′-TGTCTTTGGAACTTTGTCTGCAA-3′(SEQ ID NO: 31)) (retinas) or β-actin ((5′-CGGTTCCGATGCCCTGAGGCTCTT-3′ (SEQ ID NO: 48), 5′-CGTCACACTTCATGATGGAATTGA-3′ (SEQ ID NO: 49)) (photoreceptor 661W cells) using the ΔΔCt method. Each sample was repeated in triplicate. […]
# [3] = Huang et al., 2013; cited from earlier work
# [4] = system: hyperglycemic mouse neonates; assay: streptozotocin (STZ)-induced hyperglycemic ROP mouse model; assay type: in vivo
# From the text: Hyperglycemia is a recently described risk factor for retinopathy of prematurity (ROP) in premature infants. In streptozotocin (STZ)-induced hyperglycemic ROP mouse model, retinal vascular development was confirmed as delayed. Specifically, FGF21 deficiency delayed normal retinal vascular network formation and worsened hyperglycemic ROP in such mice. Native (nFGF21) and long-acting FGF21 (PF-05231023) treatment were both observed to have promoted retinal vessel growth in hyperglycemic ROP. The protection of FGF21 observed was also confirmed as dependent upon adiponectin (APN).
# [5] = system: mice having oxygen-induced retinopathy; assay: mouse oxygen-induced retinopathy (OIR), retinal whole mounts and retinal qPCR at P17; assay type: in vivo; conditions: WT OIR mice, i.p. daily P12-P16, P17 retinal whole mounts, vs vehicle
# Procedure: Oxygen-induced retinopathy: mice were exposed to 75% oxygen from P7 to P12. The mice were then returned to room air until P17 (Connor et al., 2009; Smith et al., 1994). High oxygen led to vessel loss and the relative hypoxia induced neovascularization which reached to maximum at P17 (Smith et al., 1994). Both genders of mouse pups were used with body weight ranging from 5.5 to 7 grams (Connor et al., 2009). The mice were randomly assigned to either native FGF21 (5 mg/kg, twice per day) or long-acting FGF21 (1 mg/kg PF-05231023) or phosphate buffered saline (PBS). The mice were intraperitoneally injected daily from P12 to P16. For the intra-vitreal injection of PF-05231023 (0.5 μl 10 μg/μl stock per eye) was delivered using 10 μl syringe with 35G needle (World Precision Instruments, Inc.) at P12. The contralateral eye was injected with vehicle control. At P17, retinal neovascularization was quantified (Connor et al., 2009; Smith et al., 1994). […] Retinal neovascularization was quantified as previously reported (Connor et al., 2009). Percentages of neovascularization were calculated by comparing the number of pixels in the neovascular areas with the total number of pixels in the retina. n is the number of eyes quantified. […]
molecule,measurement,setting,value
O=C(COc1ccc(C(=O)c2ccccc2)cc1)NC1CCN(Cc2ccccc2)CC1 [AdipoRon],"endothelial cell function (wound healing, viability)",[1],inhibited endothelial cell function in vitro
CCCCCCCCCCCCCCCCCCOP(=O)([O-])OC1CC[N+](C)(C)CC1 [perifosine],induction of NRF2 expression by PF-05231023,[2],dose-dependently inhibited
"Native FGF21: native FGF21 (nFGF21), unmodified FGF21 with short half-life (protein, UniProt Q9NSA1 29-209, looked up) Fibroblast growth factor 21: HPIPDSSPLLQFGGQVRQRYLYTDDAQQTEAHLEIREDGTVGGAADQSPESLLQLKALKPGVIQILGVKTSRFLCQRPDGALYGSLHFDPEACSFRELLLEDGYNVYQSEAHGLPLHLPGNKSPHRDPAPRGPARFLPLPGLPPALPEPPGILAPQPPDVGSSDPLSMVGPSQGRSPSYAS",half-life,[3],24 min
same,retinal vascular growth,[4],improved retinal vascular growth
same,retinal neovascularization,[5],did not affect neovascularization

# Source: patent US12653863B2, “FGF21 compositions for treatment or prevention of neovascularization of the eye and methods therefor” (Children's Medical Center Corporation, priority 2017, dated 2026)
